Results taken from US20260275288A1 (University of Texas, published 2026).

How the values were obtained:
[1] = molecular target: T1, TCR/FcR #2 CD16 extracellular domain (Fc binding domain) comprising polypeptide: WT high affinity CD16 … (human, UniProt P08637 17-254); assay: flow cytometry; 1 h, 37 °C, complete media, washed (FIGS. 38C-38D)
T1 construct: these cells also carry endogenous CD16; also called TCR/FcR #2 transduced NK cells; uTNK15 and TCR/FcR #2 transduced NK cells

[2] = molecular target: T2, non-transduced (NT) cord blood derived NK cells (endogenous wild type CD16; no CD3/TCR) (human, UniProt P08637 17-254); assay: as above
T2 construct: whole, on cells; A control cell, not a single protein; for the CD3 engagers the cells are the control without CD3; also called NT NK cells; NT NK
T2 sequence (P08637 17-254): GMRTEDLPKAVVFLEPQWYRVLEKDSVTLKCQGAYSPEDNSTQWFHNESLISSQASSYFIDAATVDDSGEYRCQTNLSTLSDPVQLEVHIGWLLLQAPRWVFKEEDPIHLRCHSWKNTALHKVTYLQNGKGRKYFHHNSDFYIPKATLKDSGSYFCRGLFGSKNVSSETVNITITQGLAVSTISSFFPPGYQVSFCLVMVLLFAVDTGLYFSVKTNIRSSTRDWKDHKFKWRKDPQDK

T1 sequence (P08637 17-254 F176V limits assumed, form in doubt): as the sequence (P08637 17-254) above, with F160V counted along it

B1: Tafasitamab (antibody)
chain 1: EVQLVESGGGLVKPGGSLKLSCAASGYTFTSYVMHWVRQAPGKGLEWIGYINPYNDGTKYNEKFQGRVTISSDKSISTAYMELSSLRSEDTAMYYCARGTYYYGTRVFDYWGQGTLVTVSSASTKGPSVFPLAPSSKSTSGGTAALGCLVKDYFPEPVTVSWNSGALTSGVHTFPAVLQSSGLYSLSSVVTVPSSSLGTQTYICNVNHKPSNTKVDKKVEPKSCDKTHTCPPCPAPELLGGPDVFLFPPKPKDTLMISRTPEVTCVVVDVSHEDPEVQFNWYVDGVEVHNAKTKPREEQFNSTFRVVSVLTVVHQDWLNGKEYKCKVSNKALPAPEEKTISKTKGQPREPQVYTLPPSREEMTKNQVSLTCLVKGFYPSDIAVEWESNGQPENNYKTTPPMLDSDGSFFLYSKLTVDKSRWQQGNVFSCSVMHEALHNHYTQKSLSLSPGK
chain 2: DIVMTQSPATLSLSPGERATLSCRSSKSLQNVNGNTYLYWFQQKPGQSPQLLIYRMSNLNSGVPDRFSGSGSGTEFTLTISSLEPEDFAVYYCMQHLEYPITFGAGTKLEIKRTVAAPSVFIFPPSDEQLKSGTASVVCLLNNFYPREAKVQWKVDNALQSGNSQESVTEQDSKDSTYSLSSTLTLSKADYEKHKVYACEVTHQGLSSPVTKSFNRGEC
With B1 the “binding percentage (average across 3 trials)” value [1] was over 80% and the “binding percentage (average across 3 trials)” value [2] was about 70%.
